Laboratory results reported in patent US20200199241A1 (Chugai, published 2020).

How the values were obtained:
Assay in all cases: SPR, captured antibody;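 also: antibody captured on a sensor chip, Fcγ receptor flowed over at 25 °C, receptor binding normalized to the captured antibody amount and expressed relative to the reference antibody ×100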
human FcγRIIb = target: T1, human FcγRIIb (human, UniProt P31994 43-217, limits assumed)
T1 construct: also called FcgRIIb; hFcgRIIb
T1 sequence: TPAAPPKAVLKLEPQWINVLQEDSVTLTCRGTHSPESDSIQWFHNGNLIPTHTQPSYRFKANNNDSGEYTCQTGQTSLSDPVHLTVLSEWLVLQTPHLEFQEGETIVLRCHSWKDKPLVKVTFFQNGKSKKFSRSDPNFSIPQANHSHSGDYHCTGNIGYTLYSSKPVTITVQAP

human FcγRIIa(R) = target: T2, human FcγRIIa(R) (human, UniProt P12318 36-217)
T2 construct: also called FcgRIIaR; hFcgRIIa(R)
T2 chain: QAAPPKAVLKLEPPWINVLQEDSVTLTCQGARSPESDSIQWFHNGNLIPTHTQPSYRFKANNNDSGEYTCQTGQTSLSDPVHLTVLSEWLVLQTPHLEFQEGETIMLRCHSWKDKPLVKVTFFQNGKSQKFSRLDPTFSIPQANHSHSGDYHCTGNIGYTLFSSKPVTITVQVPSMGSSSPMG

human FcγRIa = target: T3, human FcγRIa (human, UniProt P12314 16-292, limits assumed)
T3 construct: also called FcgRIa; hFcgRIa
T3 sequence (P12314 16-292 limits assumed): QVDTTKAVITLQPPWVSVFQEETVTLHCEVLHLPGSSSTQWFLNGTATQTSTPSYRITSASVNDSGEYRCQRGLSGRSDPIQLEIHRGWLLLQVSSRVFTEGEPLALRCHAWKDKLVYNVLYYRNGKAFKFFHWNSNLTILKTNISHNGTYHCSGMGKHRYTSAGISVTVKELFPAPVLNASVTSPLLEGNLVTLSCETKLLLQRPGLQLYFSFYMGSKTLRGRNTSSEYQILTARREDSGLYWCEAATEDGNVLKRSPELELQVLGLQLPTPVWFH

human FcγRIIa(H) = target: T4, human FcγRIIa(H) (human, UniProt P12318 36-217)
T4 construct: also called FcgRIIaH; hFcgRIIa(H)
T4 sequence: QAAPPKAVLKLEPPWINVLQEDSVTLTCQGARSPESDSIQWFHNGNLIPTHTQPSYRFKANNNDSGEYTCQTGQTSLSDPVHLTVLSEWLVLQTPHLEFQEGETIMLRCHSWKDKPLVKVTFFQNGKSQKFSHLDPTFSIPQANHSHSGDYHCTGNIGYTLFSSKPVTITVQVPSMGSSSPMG

B1: GpH7-B3 A327L/GpL16-k0 (antibody, human IgG1)
heavy: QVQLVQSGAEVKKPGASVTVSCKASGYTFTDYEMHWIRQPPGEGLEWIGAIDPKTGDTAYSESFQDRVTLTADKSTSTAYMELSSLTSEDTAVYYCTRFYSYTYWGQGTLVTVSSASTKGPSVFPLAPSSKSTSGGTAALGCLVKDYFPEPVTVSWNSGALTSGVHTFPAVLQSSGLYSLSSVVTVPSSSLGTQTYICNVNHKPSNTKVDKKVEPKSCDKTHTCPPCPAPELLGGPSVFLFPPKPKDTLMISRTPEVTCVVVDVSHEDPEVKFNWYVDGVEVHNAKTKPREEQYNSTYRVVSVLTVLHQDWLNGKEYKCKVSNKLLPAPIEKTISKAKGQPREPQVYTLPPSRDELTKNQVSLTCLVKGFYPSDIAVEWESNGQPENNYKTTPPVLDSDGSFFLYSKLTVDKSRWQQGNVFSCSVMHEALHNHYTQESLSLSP
light: DIVMTQSPLSLPVTPGEPASISCQASESLVHSNRNTYLHWYLQKPGQSPQLLIYKVSNRFSGVPDRFSGSGSGTDFTLKISRVEAEDVGVYYCSQNTHVPPTFGQGTKVEIE
notes: B3 variant; copies: 2 + 2
In the case of B1, the relative binding activity (human FcγRIIb) is reported as 34 % of GpH7-B3/GpL16-k0, the relative binding activity (human FcγRIIa(R)) is reported as 31 % of GpH7-B3/GpL16-k0 and the relative binding activity (human FcγRIa) is reported as 98 % of GpH7-B3/GpL16-k0. The relative binding activity (human FcγRIIa(H)) was 16 % of GpH7-B3/GpL16-k0.

B2: GpH7-B3 A327W/GpL16-k0 (antibody, human IgG1)
heavy: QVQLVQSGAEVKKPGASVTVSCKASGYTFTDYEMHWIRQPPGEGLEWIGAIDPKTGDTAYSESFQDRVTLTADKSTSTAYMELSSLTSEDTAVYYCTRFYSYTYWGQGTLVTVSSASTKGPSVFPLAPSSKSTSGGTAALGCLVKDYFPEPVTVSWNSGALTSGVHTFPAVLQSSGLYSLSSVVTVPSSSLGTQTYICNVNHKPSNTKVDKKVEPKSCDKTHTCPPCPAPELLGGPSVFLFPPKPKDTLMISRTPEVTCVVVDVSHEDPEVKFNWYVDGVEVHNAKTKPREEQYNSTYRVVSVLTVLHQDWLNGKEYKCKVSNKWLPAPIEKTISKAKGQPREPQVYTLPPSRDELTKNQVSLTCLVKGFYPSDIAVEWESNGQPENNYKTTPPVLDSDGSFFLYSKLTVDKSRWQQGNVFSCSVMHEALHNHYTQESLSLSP
light: DIVMTQSPLSLPVTPGEPASISCQASESLVHSNRNTYLHWYLQKPGQSPQLLIYKVSNRFSGVPDRFSGSGSGTDFTLKISRVEAEDVGVYYCSQNTHVPPTFGQGTKVEIE
notes: B3 variant; copies: 2 + 2
For B2, the relative binding activity (human FcγRIIb) was 34 % of GpH7-B3/GpL16-k0, the relative binding activity (human FcγRIIa(R)) was 34 % of GpH7-B3/GpL16-k0 and the relative binding activity (human FcγRIa) was 100 % of GpH7-B3/GpL16-k0. The relative binding activity (human FcγRIIa(H)) was 21 % of GpH7-B3/GpL16-k0.

B3: GpH7-B3 A327V/GpL16-k0 (antibody, human IgG1)
heavy: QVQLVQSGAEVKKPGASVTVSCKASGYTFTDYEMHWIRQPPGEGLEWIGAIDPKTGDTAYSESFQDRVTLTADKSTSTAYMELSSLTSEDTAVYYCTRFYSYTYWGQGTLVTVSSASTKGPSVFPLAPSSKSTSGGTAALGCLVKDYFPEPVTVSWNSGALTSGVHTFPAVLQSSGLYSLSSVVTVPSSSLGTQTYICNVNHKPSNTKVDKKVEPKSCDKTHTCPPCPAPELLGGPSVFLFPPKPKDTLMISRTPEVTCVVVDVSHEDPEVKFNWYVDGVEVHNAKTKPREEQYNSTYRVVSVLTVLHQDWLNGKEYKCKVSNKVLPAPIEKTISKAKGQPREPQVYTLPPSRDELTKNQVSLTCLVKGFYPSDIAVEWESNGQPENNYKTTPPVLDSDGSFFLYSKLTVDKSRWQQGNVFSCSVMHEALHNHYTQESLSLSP
light: DIVMTQSPLSLPVTPGEPASISCQASESLVHSNRNTYLHWYLQKPGQSPQLLIYKVSNRFSGVPDRFSGSGSGTDFTLKISRVEAEDVGVYYCSQNTHVPPTFGQGTKVEIE
notes: B3 variant; copies: 2 + 2
In the case of B3, the relative binding activity (human FcγRIIb) is reported as 43 % of GpH7-B3/GpL16-k0, the relative binding activity (human FcγRIIa(R)) is reported as 46 % of GpH7-B3/GpL16-k0 and the relative binding activity (human FcγRIa) is reported as 97 % of GpH7-B3/GpL16-k0. The relative binding activity (human FcγRIIa(H)) was 17 % of GpH7-B3/GpL16-k0.

B4: GpH7-B3 A327Y/GpL16-k0 (antibody, human IgG1)
heavy: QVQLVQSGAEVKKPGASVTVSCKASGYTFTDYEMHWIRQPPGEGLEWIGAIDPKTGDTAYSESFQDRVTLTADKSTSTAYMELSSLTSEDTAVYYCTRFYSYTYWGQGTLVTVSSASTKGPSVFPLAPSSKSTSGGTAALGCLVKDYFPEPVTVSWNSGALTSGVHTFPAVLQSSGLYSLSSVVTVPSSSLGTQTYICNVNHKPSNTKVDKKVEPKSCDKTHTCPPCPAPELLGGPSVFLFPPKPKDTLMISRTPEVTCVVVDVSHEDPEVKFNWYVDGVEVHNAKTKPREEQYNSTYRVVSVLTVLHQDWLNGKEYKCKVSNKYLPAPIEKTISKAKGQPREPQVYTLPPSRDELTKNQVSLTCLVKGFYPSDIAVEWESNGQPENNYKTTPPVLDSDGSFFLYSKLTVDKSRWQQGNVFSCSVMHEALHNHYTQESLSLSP
light: DIVMTQSPLSLPVTPGEPASISCQASESLVHSNRNTYLHWYLQKPGQSPQLLIYKVSNRFSGVPDRFSGSGSGTDFTLKISRVEAEDVGVYYCSQNTHVPPTFGQGTKVEIE
notes: B3 variant; copies: 2 + 2
B4 was tested, and the relative binding activity (human FcγRIIb) was 18 % of GpH7-B3/GpL16-k0, the relative binding activity (human FcγRIIa(R)) was 17 % of GpH7-B3/GpL16-k0 and the relative binding activity (human FcγRIa) was 97 % of GpH7-B3/GpL16-k0. The relative binding activity (human FcγRIIa(H)) was 26 % of GpH7-B3/GpL16-k0.

B5: GpH7-B3 D270M/GpL16-k0 (antibody, human IgG1)
heavy: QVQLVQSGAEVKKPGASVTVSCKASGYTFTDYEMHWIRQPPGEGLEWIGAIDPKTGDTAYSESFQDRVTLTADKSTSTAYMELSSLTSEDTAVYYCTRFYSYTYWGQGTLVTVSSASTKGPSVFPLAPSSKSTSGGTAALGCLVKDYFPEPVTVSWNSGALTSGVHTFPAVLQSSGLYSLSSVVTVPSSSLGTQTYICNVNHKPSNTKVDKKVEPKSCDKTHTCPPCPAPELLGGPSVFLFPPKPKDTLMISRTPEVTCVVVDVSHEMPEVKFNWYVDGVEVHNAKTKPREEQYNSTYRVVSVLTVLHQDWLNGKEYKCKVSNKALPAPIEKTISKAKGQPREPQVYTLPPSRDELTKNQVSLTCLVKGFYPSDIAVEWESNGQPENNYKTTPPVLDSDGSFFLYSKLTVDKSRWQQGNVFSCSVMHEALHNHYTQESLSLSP
light: DIVMTQSPLSLPVTPGEPASISCQASESLVHSNRNTYLHWYLQKPGQSPQLLIYKVSNRFSGVPDRFSGSGSGTDFTLKISRVEAEDVGVYYCSQNTHVPPTFGQGTKVEIE
notes: B3 variant; copies: 2 + 2
In the case of B5, the relative binding activity (human FcγRIIb) is reported as 6 % of GpH7-B3/GpL16-k0, the relative binding activity (human FcγRIIa(R)) is reported as 7 % of GpH7-B3/GpL16-k0 and the relative binding activity (human FcγRIa) is reported as 90 % of GpH7-B3/GpL16-k0. For the same binder, the relative binding activity (human FcγRIIa(H)) was 57 % of GpH7-B3/GpL16-k0.

B6: GpH7-B3 A327Q/GpL16-k0 (antibody, human IgG1)
heavy: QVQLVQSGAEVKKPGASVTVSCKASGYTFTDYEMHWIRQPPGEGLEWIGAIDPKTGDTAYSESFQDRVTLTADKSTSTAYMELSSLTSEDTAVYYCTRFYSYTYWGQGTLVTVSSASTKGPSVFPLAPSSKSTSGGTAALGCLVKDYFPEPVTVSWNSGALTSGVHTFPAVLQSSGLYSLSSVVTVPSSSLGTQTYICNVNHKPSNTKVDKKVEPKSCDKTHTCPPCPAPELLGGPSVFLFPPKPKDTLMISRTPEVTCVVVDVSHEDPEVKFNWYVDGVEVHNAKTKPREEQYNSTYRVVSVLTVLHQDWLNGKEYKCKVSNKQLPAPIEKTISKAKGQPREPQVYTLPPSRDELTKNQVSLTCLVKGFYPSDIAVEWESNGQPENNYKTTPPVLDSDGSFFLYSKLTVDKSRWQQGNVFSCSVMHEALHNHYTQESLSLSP
light: DIVMTQSPLSLPVTPGEPASISCQASESLVHSNRNTYLHWYLQKPGQSPQLLIYKVSNRFSGVPDRFSGSGSGTDFTLKISRVEAEDVGVYYCSQNTHVPPTFGQGTKVEIE
notes: B3 variant; copies: 2 + 2
For B6, the relative binding activity (human FcγRIIb) was 29 % of GpH7-B3/GpL16-k0, the relative binding activity (human FcγRIIa(R)) was 34 % of GpH7-B3/GpL16-k0 and the relative binding activity (human FcγRIa) was 94 % of GpH7-B3/GpL16-k0. The relative binding activity (human FcγRIIa(H)) was 47 % of GpH7-B3/GpL16-k0.

B7: GpH7-B3 A327M/GpL16-k0 (antibody, human IgG1)
heavy: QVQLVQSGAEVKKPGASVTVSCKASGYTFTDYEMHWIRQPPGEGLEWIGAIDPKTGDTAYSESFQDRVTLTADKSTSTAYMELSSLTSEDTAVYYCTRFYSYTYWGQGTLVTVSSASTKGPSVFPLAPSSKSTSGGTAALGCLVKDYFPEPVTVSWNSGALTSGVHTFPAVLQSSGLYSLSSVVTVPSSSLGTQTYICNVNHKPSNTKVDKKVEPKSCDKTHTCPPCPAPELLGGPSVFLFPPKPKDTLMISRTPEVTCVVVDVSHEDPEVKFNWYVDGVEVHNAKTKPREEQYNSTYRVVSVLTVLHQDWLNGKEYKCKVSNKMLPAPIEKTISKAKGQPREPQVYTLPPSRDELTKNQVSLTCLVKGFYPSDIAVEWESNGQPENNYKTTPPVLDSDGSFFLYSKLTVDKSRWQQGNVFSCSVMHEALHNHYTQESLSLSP
light: DIVMTQSPLSLPVTPGEPASISCQASESLVHSNRNTYLHWYLQKPGQSPQLLIYKVSNRFSGVPDRFSGSGSGTDFTLKISRVEAEDVGVYYCSQNTHVPPTFGQGTKVEIE
notes: B3 variant; copies: 2 + 2
With B7 the relative binding activity (human FcγRIIb) was 40 % of GpH7-B3/GpL16-k0, the relative binding activity (human FcγRIIa(R)) was 38 % of GpH7-B3/GpL16-k0 and the relative binding activity (human FcγRIa) was 95 % of GpH7-B3/GpL16-k0. The relative binding activity (human FcγRIIa(H)) was 55 % of GpH7-B3/GpL16-k0.

B8: GpH7-B3 A327T/GpL16-k0 (antibody, human IgG1)
heavy: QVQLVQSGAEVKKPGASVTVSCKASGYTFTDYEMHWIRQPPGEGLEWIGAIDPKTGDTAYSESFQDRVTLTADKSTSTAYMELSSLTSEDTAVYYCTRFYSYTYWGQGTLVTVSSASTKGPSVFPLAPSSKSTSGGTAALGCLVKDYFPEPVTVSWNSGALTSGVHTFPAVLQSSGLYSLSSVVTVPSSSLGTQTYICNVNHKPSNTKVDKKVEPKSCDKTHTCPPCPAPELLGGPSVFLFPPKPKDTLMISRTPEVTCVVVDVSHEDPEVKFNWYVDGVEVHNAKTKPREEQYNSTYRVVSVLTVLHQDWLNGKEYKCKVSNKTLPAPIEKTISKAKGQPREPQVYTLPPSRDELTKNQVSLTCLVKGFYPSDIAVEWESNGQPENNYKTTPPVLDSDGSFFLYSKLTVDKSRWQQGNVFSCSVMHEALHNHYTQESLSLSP
light: DIVMTQSPLSLPVTPGEPASISCQASESLVHSNRNTYLHWYLQKPGQSPQLLIYKVSNRFSGVPDRFSGSGSGTDFTLKISRVEAEDVGVYYCSQNTHVPPTFGQGTKVEIE
notes: B3 variant; copies: 2 + 2
B8 was tested, and the relative binding activity (human FcγRIIb) was 37 % of GpH7-B3/GpL16-k0, the relative binding activity (human FcγRIIa(R)) was 27 % of GpH7-B3/GpL16-k0 and the relative binding activity (human FcγRIa) was 64 % of GpH7-B3/GpL16-k0. The relative binding activity (human FcγRIIa(H)) was 12 % of GpH7-B3/GpL16-k0.

B9: GpH7-B3 D270T/GpL16-k0 (antibody, human IgG1)
heavy: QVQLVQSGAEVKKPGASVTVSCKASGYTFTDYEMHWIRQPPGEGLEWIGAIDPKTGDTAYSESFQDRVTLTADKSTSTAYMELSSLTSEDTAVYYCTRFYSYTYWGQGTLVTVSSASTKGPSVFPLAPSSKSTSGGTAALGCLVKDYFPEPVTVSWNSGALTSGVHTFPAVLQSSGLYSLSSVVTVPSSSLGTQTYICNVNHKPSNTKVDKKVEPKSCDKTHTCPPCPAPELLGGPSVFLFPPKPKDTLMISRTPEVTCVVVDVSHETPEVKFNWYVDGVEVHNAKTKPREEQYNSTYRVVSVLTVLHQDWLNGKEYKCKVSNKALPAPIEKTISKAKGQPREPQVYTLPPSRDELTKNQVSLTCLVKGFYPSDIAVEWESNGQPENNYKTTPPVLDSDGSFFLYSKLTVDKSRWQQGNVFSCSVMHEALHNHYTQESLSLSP
light: DIVMTQSPLSLPVTPGEPASISCQASESLVHSNRNTYLHWYLQKPGQSPQLLIYKVSNRFSGVPDRFSGSGSGTDFTLKISRVEAEDVGVYYCSQNTHVPPTFGQGTKVEIE
notes: B3 variant; copies: 2 + 2
B9 was tested, and the relative binding activity (human FcγRIIb) was -2 % of GpH7-B3/GpL16-k0, the relative binding activity (human FcγRIIa(R)) was 1 % of GpH7-B3/GpL16-k0 and the relative binding activity (human FcγRIa) was 81 % of GpH7-B3/GpL16-k0. The relative binding activity (human FcγRIIa(H)) was 38 % of GpH7-B3/GpL16-k0.

B10: GpH7-B3 D270I/GpL16-k0 (antibody, human IgG1)
heavy: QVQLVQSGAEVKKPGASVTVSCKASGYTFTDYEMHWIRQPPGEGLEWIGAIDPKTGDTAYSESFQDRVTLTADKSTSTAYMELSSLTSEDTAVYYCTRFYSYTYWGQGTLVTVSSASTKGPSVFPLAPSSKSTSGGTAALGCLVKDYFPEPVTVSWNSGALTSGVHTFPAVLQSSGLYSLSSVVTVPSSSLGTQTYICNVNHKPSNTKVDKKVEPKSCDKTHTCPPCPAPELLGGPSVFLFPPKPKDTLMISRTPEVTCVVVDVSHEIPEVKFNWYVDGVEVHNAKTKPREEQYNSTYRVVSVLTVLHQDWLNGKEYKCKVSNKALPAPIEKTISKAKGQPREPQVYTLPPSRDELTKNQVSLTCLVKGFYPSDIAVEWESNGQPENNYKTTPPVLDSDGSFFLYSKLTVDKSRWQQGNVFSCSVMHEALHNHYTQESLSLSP
light: DIVMTQSPLSLPVTPGEPASISCQASESLVHSNRNTYLHWYLQKPGQSPQLLIYKVSNRFSGVPDRFSGSGSGTDFTLKISRVEAEDVGVYYCSQNTHVPPTFGQGTKVEIE
notes: B3 variant; copies: 2 + 2
In the case of B10, the relative binding activity (human FcγRIIb) is reported as 1 % of GpH7-B3/GpL16-k0, the relative binding activity (human FcγRIIa(R)) is reported as 3 % of GpH7-B3/GpL16-k0 and the relative binding activity (human FcγRIa) is reported as 88 % of GpH7-B3/GpL16-k0. For the same binder, the relative binding activity (human FcγRIIa(H)) was 43 % of GpH7-B3/GpL16-k0.

B11: GpH7-B3 A330S/GpL16-k0 (antibody, human IgG1)
heavy: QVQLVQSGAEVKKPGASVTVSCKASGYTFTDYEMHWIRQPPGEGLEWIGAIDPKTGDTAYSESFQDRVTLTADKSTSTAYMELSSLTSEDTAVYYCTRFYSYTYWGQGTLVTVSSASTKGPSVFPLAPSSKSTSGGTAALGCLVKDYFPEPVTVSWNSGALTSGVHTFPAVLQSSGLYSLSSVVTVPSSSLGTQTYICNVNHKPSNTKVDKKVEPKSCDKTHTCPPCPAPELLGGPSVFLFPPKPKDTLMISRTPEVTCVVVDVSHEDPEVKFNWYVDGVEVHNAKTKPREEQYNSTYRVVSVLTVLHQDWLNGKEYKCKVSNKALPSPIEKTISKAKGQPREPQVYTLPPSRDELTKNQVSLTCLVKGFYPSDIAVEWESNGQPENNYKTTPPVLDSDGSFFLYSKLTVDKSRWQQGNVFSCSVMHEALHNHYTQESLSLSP
light: DIVMTQSPLSLPVTPGEPASISCQASESLVHSNRNTYLHWYLQKPGQSPQLLIYKVSNRFSGVPDRFSGSGSGTDFTLKISRVEAEDVGVYYCSQNTHVPPTFGQGTKVEIE
notes: B3 variant; copies: 2 + 2
B11 was tested, and the relative binding activity (human FcγRIIb) was -3 % of GpH7-B3/GpL16-k0, the relative binding activity (human FcγRIIa(R)) was 0 % of GpH7-B3/GpL16-k0 and the relative binding activity (human FcγRIa) was 58 % of GpH7-B3/GpL16-k0. For the same binder, the relative binding activity (human FcγRIIa(H)) was 0 % of GpH7-B3/GpL16-k0.
